Test results published in the supplement of paper PMC10126150.
± gives the standard deviation of the averaged measurements.

system: ATP; assay: switch fluorescence ratio, 500 uM ATP over buffer (Cy3 cluster intensity, sum of 5 cycles each) (fold (ratio)); higher = stronger signal-on switching upon ATP binding; sequences stand for … in TCGTCGGCAGCGTCAGATGTGTATAAGAGACAGTTTTTTTTTTTTTTTTTTTTTTTTT…TC; settings: aptamer strand: ATP DNA aptamer (quencher-CACCTGGGGGAGTATTGCGGAGGAAGG + anchor), 100 nM annealed; ATP concentration: 500 uM
Method in brief: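 For every switch-domain sequence, the fluorescence ratio is the mean of per-cluster values, each being summed target-cycle Cy3 intensity over summed buffer-cycle Cy3 intensity. Clusters outside 100-1000 RFU were excluded. On a modified Illumina MiSeq flow-cell, the Cy3-labelled switching-strand clusters were annealed to 100 nM quencher-labelled ATP aptamer, imaged in selection buffer and then after 15 min with 500 uM ATP at 22 °C. Five such cycles were run, with NaOH stripping and re-annealing between them.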
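Also: ATP exposure 15 min at 22 °C before imaging.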

TCTGTCCCTT and CCCTGATCTG are within error of each other in switch fluorescence ratio: 1.01 ± 0.024 for the first, 1.02 ± 0.011 for the second.

TGTGTTACTT and CGGCATTCAA are the same in switch fluorescence ratio: 0.9988 ± 0.001 for the first, 0.9989 ± 0.0057 for the second.

AAGAGGATAG and ACTTAAAAAC are within error of each other in switch fluorescence ratio: 0.983 ± 0.043 for the first, 1.08 ± 0.055 for the second.

GGGAGGTCGG and GCGTGGGGAA are within error of each other in switch fluorescence ratio: 1.01 ± 0.025 for the first, 1.07 ± 0.036 for the second.

GGACAATGAG and GTTGGTACTT are within error of each other in switch fluorescence ratio: 0.998 ± 0.035 for the first, 0.991 ± 0.02 for the second.

TAAGTCGAAA and GTCAGGAAGT are within error of each other in switch fluorescence ratio: 1 ± 0.019 for the first, 1.02 ± 0.016 for the second.

AATGTGTGGG and ATTAATAGG are within error of each other in switch fluorescence ratio: 1.01 ± 0.02 for the first, 0.997 ± 0.026 for the second.

AGTGGTGTTT and GCTGGGGGGT are within error of each other in switch fluorescence ratio: 0.989 ± 0.016 for the first, 1 ± 0.044 for the second.

GGTTTGAAGC and TGAATCAGG are within error of each other in switch fluorescence ratio: 0.9642 ± 0.008 for the first, 1.01 ± 0.073 for the second.

GTTCGGTGGA and AGGGGTTGAG are within error of each other in switch fluorescence ratio: 1 ± 0.041 for the first, 0.998 ± 0.036 for the second.

First: ACGTTTGAGT
Second: TCAATCGTTG
The switch fluorescence ratio of the first is lower: 0.99 ± 0.016 for the first, 1.05 ± 0.016 for the second.

ATAGCTTGTA and GGACTGAGGA are within error of each other in switch fluorescence ratio: 0.995 ± 0.037 for the first, 1.002 ± 0.01 for the second.

GCAGTTTGGT and TGTTTGTCTA are within error of each other in switch fluorescence ratio: 0.9978 ± 0.0039 for the first, 1.01 ± 0.011 for the second.

Going from ACTGTAATTC to TATTGGGGAT, the switch fluorescence ratio falls from 1.19 ± 0.041 to 1.06 ± 0.043.

AATCTGATGT and ATGGCCGAGT are within error of each other in switch fluorescence ratio: 1.18 ± 0.28 for the first, 1.03 ± 0.038 for the second.

Compared with CGGGCAGAGG, CCGAATAATT is higher in switch fluorescence ratio: 0.993 ± 0.01 for the first, 1.08 ± 0.011 for the second.

GTATGAGTAG and GAGGCTTCTA are within error of each other in switch fluorescence ratio: 0.992 ± 0.035 for the first, 1.02 ± 0.036 for the second.

GGTTCTTATT and GGAACGGGGA are within error of each other in switch fluorescence ratio: 1.017 ± 0.0064 for the first, 1.01 ± 0.017 for the second.

GGTTGATTGG and GCAGGAGTAG are within error of each other in switch fluorescence ratio: 0.973 ± 0.014 for the first, 1.01 ± 0.038 for the second.

TTTAGGCCGA and TGACTTTCGC are within error of each other in switch fluorescence ratio: 0.99 ± 0.043 for the first, 1.06 ± 0.028 for the second.

First: GGTGATAATG
Second: AGGGCTTTAC
The switch fluorescence ratio of the first is lower: 0.982 ± 0.031 for the first, 1.1314 ± 8.1e-05 for the second.

Going from GTGAAATAGG to ATCCGGCGAT, the switch fluorescence ratio rises from 0.981 ± 0.014 to 1.35 ± 0.018.

CGGAGTACAG and AACATTTTTC are within error of each other in switch fluorescence ratio: 1.09 ± 0.11 for the first, 1.01 ± 0.021 for the second.

GATTTTGGGG and CTTAGAGTTG are within error of each other in switch fluorescence ratio: 1.01 ± 0.029 for the first, 0.983 ± 0.016 for the second.

GTATAACCCG and GAAGCTCCTG are within error of each other in switch fluorescence ratio: 0.992 ± 0.026 for the first, 0.996 ± 0.0043 for the second.

Compared with CGCGGTTGC, AAACGTGGTG is lower in switch fluorescence ratio: 1.24 ± 0.038 for the first, 1 ± 0.038 for the second.

Compared with GGGGACGCTG, CAGGAATATA is higher in switch fluorescence ratio: 0.98 ± 0.012 for the first, 1.014 ± 0.0049 for the second.

First: CCCGATGTTA
Second: GTTGTGCAAT
The switch fluorescence ratio of the first is lower: 0.9973 ± 0.0041 for the first, 1.16 ± 0.0012 for the second.

ACGGGGGAGC and TTAGTAAGGC are within error of each other in switch fluorescence ratio: 1.03 ± 0.043 for the first, 1.22 ± 0.2 for the second.

TGGGGACGGT and AAATTGGCAT are within error of each other in switch fluorescence ratio: 1.01 ± 0.012 for the first, 0.993 ± 0.028 for the second.

GTTTTTAGAT and AAAGTATTTT are within error of each other in switch fluorescence ratio: 0.9709 ± 0.0092 for the first, 1.03 ± 0.067 for the second.

Compared with AATATATGGG, GCTAATTATA is higher in switch fluorescence ratio: 0.973 ± 0.021 for the first, 1.01 ± 0.015 for the second.

AAGTTGCGCT and GGTCCTCGGG are within error of each other in switch fluorescence ratio: 1 ± 0.034 for the first, 1.03 ± 0.03 for the second.

AATTTGCGGT and ATGAAAGTAG are within error of each other in switch fluorescence ratio: 0.988 ± 0.022 for the first, 1.005 ± 0.0012 for the second.

AGGAAATTTT and AGAAAATAGA are within error of each other in switch fluorescence ratio: 1.01 ± 0.025 for the first, 0.9789 ± 0.0084 for the second.

GGCAATTGGA and GAATTTATGG are within error of each other in switch fluorescence ratio: 1.01 ± 0.011 for the first, 0.985 ± 0.023 for the second.

ATGGGCGATG and AACGGTGACG are within error of each other in switch fluorescence ratio: 1.01 ± 0.055 for the first, 1.03 ± 0.072 for the second.

TCTTATTGG and CGTGAATTTG are within error of each other in switch fluorescence ratio: 1.02 ± 0.028 for the first, 0.987 ± 0.026 for the second.

TTATACTCTT and GTTGAATTAT are within error of each other in switch fluorescence ratio: 1.01 ± 0.026 for the first, 0.987 ± 0.016 for the second.

GGGGTTCACT and GCTATATAGT are the same in switch fluorescence ratio: 1.01 ± 0.029 for the first, 1.01 ± 0.011 for the second.

ATACGCTGTT and AGGTAGTTTT are within error of each other in switch fluorescence ratio: 0.9875 ± 0.0082 for the first, 0.982 ± 0.011 for the second.

TCGGGTTCGG and GGCTTTTACT are within error of each other in switch fluorescence ratio: 0.992 ± 0.032 for the first, 1.04 ± 0.019 for the second.

CGTTGGGGCA and GTCCTTATTT are within error of each other in switch fluorescence ratio: 1 ± 0.077 for the first, 1.08 ± 0.022 for the second.

GCGTAAAGGA and GGATATGGCA are within error of each other in switch fluorescence ratio: 1.02 ± 0.015 for the first, 1.01 ± 0.037 for the second.

CATGCTTCAT and GAGAGAGTGA are within error of each other in switch fluorescence ratio: 0.988 ± 0.017 for the first, 0.963 ± 0.025 for the second.

TTACGGATTC and TGGTGCGCCC are within error of each other in switch fluorescence ratio: 1.39 ± 0.5 for the first, 1.033 ± 0.0058 for the second.

TTCTTTTACG and GGTGGATTCG are within error of each other in switch fluorescence ratio: 1.049 ± 0.0082 for the first, 1.06 ± 0.063 for the second.

AACCTGTAGG and ATGATAGCTT are within error of each other in switch fluorescence ratio: 0.987 ± 0.021 for the first, 1 ± 0.026 for the second.

AGACTTTGAG and TTTGTTTGCT are within error of each other in switch fluorescence ratio: 1.03 ± 0.061 for the first, 0.989 ± 0.025 for the second.

TTAGAGCTTC and TTTGTTGTTT are within error of each other in switch fluorescence ratio: 1.01 ± 0.038 for the first, 0.986 ± 0.013 for the second.
